Data from patent US20240109937A1, “BINDING PEPTIDES AND USES THEREOF” (The Johns Hopkins University, priority 2021, published 2024).

What was measured:
[1] = molecular target: T1, Peptidylprolyl isomerase A (PPIA), also known as cyclophilin A (CypA), P62937; test: printed as 'Disrupts the complex AIF/Cyclophilin with a KD'; method not stated
[2] = molecular target: T1, Peptidylprolyl isomerase A (PPIA), also …; test: method not stated; told in the description of FIG. 20

T1 sequence (P62937 whole entry): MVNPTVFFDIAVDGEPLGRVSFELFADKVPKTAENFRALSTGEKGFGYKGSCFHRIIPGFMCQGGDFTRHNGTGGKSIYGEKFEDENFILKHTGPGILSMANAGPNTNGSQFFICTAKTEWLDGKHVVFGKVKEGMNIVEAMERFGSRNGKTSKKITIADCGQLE

GRKKRRQRRRAQSVGVSSGKLLIKLKDGRKVETDHI (modifications not checked) [TAT-AIF (370-394)]
Kd [1]: 5 µM | Kd [2]: 12 µM
